The target of the experiment is VASP, endogenous in human endothelial cells (human (endogenous in EA.hy926 and ECV304)) (UniProt P50552). Kind of experiment: co-IP.
Chain of VASP, endogenous in human endothelial cells (human (endogenous in EA.hy926 and ECV304)) (P50552 whole entry): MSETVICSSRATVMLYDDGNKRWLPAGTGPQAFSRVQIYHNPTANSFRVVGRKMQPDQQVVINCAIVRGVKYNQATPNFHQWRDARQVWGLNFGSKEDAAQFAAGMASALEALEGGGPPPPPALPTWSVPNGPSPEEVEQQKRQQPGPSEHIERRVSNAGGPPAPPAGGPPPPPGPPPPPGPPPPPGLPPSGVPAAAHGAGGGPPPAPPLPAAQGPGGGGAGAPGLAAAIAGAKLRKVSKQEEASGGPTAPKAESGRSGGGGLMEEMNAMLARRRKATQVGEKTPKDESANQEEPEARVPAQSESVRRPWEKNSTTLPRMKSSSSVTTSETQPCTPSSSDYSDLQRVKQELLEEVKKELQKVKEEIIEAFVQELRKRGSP

“αII-spectrin (SPCN), endogenous in human endothelial cells, Q13813 1-2472” registered a percent of cellular SPCN coprecipitated of more than 70%.

The record behind these values is paper PMC2213610.
